Patent US20250269027A1

Target: Mesothelin (MSLN) expressed on target cells (human) (UniProt Q13421)
Experiment: cell-based or functional assay

Work on m912 benchmark MSLN CAR (scFv) yielded an EC50 (functional sensitivity), Jurkat NFAT-luciferase, MSLN molecules/cell on HEK293 cells (molecules/cell) of 80000.
